Assay results reported in patent US20190365892A1 (Biogen, published 2019).
Positions count from the first letter of the chain named.

Columns and labels:
[1] = target: VLA-4 on tumor cell lines (Mec1, JM1, U266, H929, HL60, KG1) (UniProt P13612); experiment: cell-based or functional assay
[2] = target: VLA-4 on tumor cell lines (Mec1, JM1, U266, H929, HL60, KG1) (UniProt P13612); experiment: flow cytometry on H929 (MM) cells
[3] = target: VLA-4 on tumor cell lines (Mec1, JM1, U266, H929, HL60, KG1) (UniProt P13612); experiment: flow cytometry on JM1 (CLL) cells
[4] = target: VLA-4 on tumor cell lines (Mec1, JM1, U266, H929, HL60, KG1) (UniProt P13612); experiment: flow cytometry on KG1 (AML) cells
[5] = target: VLA-4 on tumor cell lines (Mec1, JM1, U266, H929, HL60, KG1) (UniProt P13612); experiment: flow cytometry on U266 (MM) cells
[6] = target: VLA-4 on tumor cell lines (Mec1, JM1, U266, H929, HL60, KG1) (UniProt P13612); experiment: flow cytometry on HL60 (AML) cells
[7] = target: VLA-4 on tumor cell lines (Mec1, JM1, U266, H929, HL60, KG1) (UniProt P13612); experiment: flow cytometry on Mec1 (CLL) cells
α4β1 [8] = target: T1, α4β1 (UniProt P13612 34-970; P05556 21-728); experiment: competition ELISA; α4β1 preincubated with test mAb, competitor murine HP1/2
T1 construct: The preparation is not described; also called VLA-4; alpha4beta1 integrin

α4β1 [9] = target: T1, α4β1; experiment: competition ELISA; mixture of test mAb and mouse HP1/2 (competitor) on α4β1

Humanized HP1/2 (HuHP1/2) (antibody)
IC50 (nM), inhibition of adhesion of H929 (MM) cells to Fibronectin-coated wells [1]: 0.21 nM
IC50 (nM), inhibition of adhesion of H929 (MM) cells to VCAM1-Ig-coated wells [1]: 1.35 nM
IC50 (nM), inhibition of adhesion of HL60 (AML) cells to Fibronectin-coated wells [1]: 0.16 nM
IC50 (nM), inhibition of adhesion of HL60 (AML) cells to VCAM1-Ig-coated wells [1]: 0.91 nM
IC50 (nM), inhibition of adhesion of JM1 (CLL) cells to VCAM1-Ig-coated wells [1]: 0.12 nM
IC50 (nM), inhibition of adhesion of KG1 (AML) cells to Fibronectin-coated wells [1]: 0.05 nM
IC50 (nM), inhibition of adhesion of KG1 (AML) cells to VCAM1-Ig-coated wells [1]: 0.1 nM
IC50 (nM), inhibition of adhesion of Mec1 (CLL) cells to Fibronectin-coated wells [1]: 0.1 nM
IC50 (nM), inhibition of adhesion of Mec1 (CLL) cells to VCAM1-Ig-coated wells [1]: 0.07 nM
IC50 (nM), inhibition of adhesion of U266 (MM) cells to Fibronectin-coated wells [1]: 0.14 nM
IC50 (nM), inhibition of adhesion of U266 (MM) cells to VCAM1-Ig-coated wells [1]: 0.13 nM
antibody concentration giving maximal inhibition of HL60 cell binding to FN and VCAM1-Ig [1]: 20 µg/mL
antibody concentration giving maximal inhibition of Mec1 cell binding to FN and VCAM1-Ig [1]: 20 µg/mL
antibody concentration giving maximal inhibition of U266 cell binding to FN and VCAM1-Ig [1]: 20 µg/mL
EC50 [2]: 0.91 nM
EC50 [3]: 0.21 nM
EC50 [4]: 0.19 nM
EC50 [5]: 0.46 nM
EC50 [6]: 0.11 nM
EC50 [7]: 0.11 nM
IC50 (α4β1 [8]): 1.05 nM
IC50 (α4β1 [9]): 1.41 nM

B1: Chimeric HP1/2 (antibody, V domains shown)
VH: EVQLQQSGAELVKPGASVKLSCTASGFNIKDTYMHWVKQRPEQGLEWIGRIDPASGDTKYDPKFQVKATITADTSSNTAWLQLSSLTSEDTAVYYCADGMWVSTGYALDFWGQGTTVTVSS
VL: SIVMTQTPKFLLVSAGDRVTITCKASQSVTNDVAWYQQKPGQSPKLLIYYASNRYTGVPDRFTGSGYGTDFTFTISTVQAEDLAVYFCQQDYSSPYTFGGGTKLEIK
notes: also called chimerized HP1/2 antibody; chimeric mAb
IC50 (α4β1 [8]): 1.06 nM
IC50 (α4β1 [9]): 1.64 nM

B2: H1L0 (antibody, V domains shown)
VH: EVQLVQSGAEVKKPGATVKISCKASGFNIKDTYMHWVQQAPGKGLEWMGRIDPASGDTKYDPKFQVRVTITADTSTDTAYMELSSLRSEDTAVYYCADGMWVSTGYALDFWGQGTLVTVSS
VL: DIVMTQSPDSLAVSLGERATINCKASQSVTNDVAWYQQKPGQPPKLLIYYASNRYTGVPDRFSGSGSGTDFTLTISSLQAEDVAVYYCQQDYSSPYTFGQGTKVEIK
IC50 (α4β1 [8]): 1.87 nM
IC50 (α4β1 [9]): 4.46 nM

B3: H1L2 (antibody, V domains shown)
VH: B2 VH
VL: B2 VL with D1S, S67Y, Y87F
IC50 (α4β1 [8]): 0.9 nM
IC50 (α4β1 [9]): 1.34 nM

B4: H1L1 (antibody, V domains shown)
VH: B2 VH
VL: B2 VL with D1S, Y87F
IC50 (α4β1 [8]): 1.67 nM
IC50 (α4β1 [9]): 4.55 nM

B5: H1L3 (antibody, V domains shown)
VH: B2 VH
VL: B2 VL with D1S, S67Y, L73F, V85T, Y87F
IC50 (α4β1 [8]): 0.49 nM
